Square brackets hold non-standard residues; d marks the D form. Peptide text beside a SMILES is read from it. * marks the point of attachment. DOTA = O=C(O)CN1CCN(CC(=O)O)CCN(CC(=O)*)CCN(CC(=O)O)CC1
Experiments:
[1] = format: in vitro ADME; settings: human, plasma, plasma protein binding (PPB)
Method: Figure 3 Stability of the ^177Lu ligands in human plasma at 37 °C, expressed as % of intact radioligand over time, assessed by radio-HPLC. The % of plasma protein binding (PPB) after 60 min incubation is provided in parenthesis and it is expressed as the % of radioligand in the protein fraction (pellet) versus the total activity in the plasma. TEXT PRINTED IN THE PICTURE: ^177Lu-1: PPB: 35% | ^177Lu-2: PPB: 22% | ^177Lu-5: PPB: 42% | ^177Lu-6: PPB: 38% | ^177Lu-7: PPB: 39% | ^177Lu-9: PPB: 37%
For the determination of plasma protein binding (PPB), 100 μL from the plasma incubated with the ^177Lu ligand was removed and measured in a γ-counter (total radioactivity). Protein precipitation and separation followed, as described above. The supernatant and the protein pellet were then measured in a γ-counter. The percentage of plasma protein binding was calculated as the ratio between the protein-bound radioactivity and the total radioactivity in the plasma.

[2] = system: Jurkat xenografts; assay: in vivo; settings: female, athymic nude-Foxn1^nu/Foxn1^+, mouse, iv, 200 pmol, 1 h
Method: (§1) Quantification of the total body distribution of ^177Lu-7 and ^68Ga-7 was performed in Jurkat xenografted mice after intravenous injection of 100 μL, 200 pmol, with […], respectively (n = 5). The mice were sacrificed at 1 h p.i. ^177Lu-7 and ^68Ga-7 accumulated mainly in the kidneys (83.1 ± 25.5 and 75.6 ± 30.3%IA/g, respectively, p = 0.59), liver (5.19 ± 1.08 and 4.08 ± 1.05%IA/g, respectively, p = 0.07) and tumor (2.25 ± 0.43 and 2.24 ± 0.57%IA/g, respectively, p = 0.97), as already seen in the SPECT/CT and PET/CT images (Figures 6 and 7). Uptake in the tumor was lower than for the kidneys and liver but higher as in all other tissues investigated. […] The uptake seen in the liver might be attributed, at least partially, to the fact that CXCR4 is constitutively expressed in the sinusoidal endothelial cells of the murine liver[38] or could be related to another yet-unknown mechanism previously reported for other CXCR4-targeting probes.[11],[39] Regretfully, there are no direct measurements available for the affinity of ^177Lu-7 with the murine CXCR4 (mCXCR4). This is relevant for assessing its total body distribution. However, we have shown that EPI-X4 and EPI-X4 derivatives are active in mouse models of inflammatory diseases[22],[25] and cancer.[40] More specifically, EPI-X4 derivatives such as JM#21 reduced immune cell influx in lungs of mice suffering from allergic asthma or reduced skin inflammation in a murine model of atopic dermatitis upon topical administration. […] Thus, we speculate that the DOTA conjugate of JM#173 (ligand-7) also cross-reacts to the mCXCR4. […] Last, but not the least, the uptake in the kidneys was predominant, and given the highly hydrophilic character of ^177Lu-7, is attributed, at least partially, to its excretion via this path.
(§2) The experimental protocol involving animals was approved by the Veterinary Office (Department of Health) of the Cantonal Basel-Stadt (Approval No. 30515) in accordance with the Swiss regulations for animal treatment. Female athymic nude-Foxn1^nu/Foxn1^+ mice (Envigo, The Netherlands), 4–6 weeks old, were injected subcutaneously with 10^7 Jurkat cells in a 200 μL (1:1) mixture of PBS and Matrigel (CorningMatrigelMembrane matrix, Fischer Scientific, Germany) on the right shoulder. The tumors were allowed to grow for 3–4 weeks before commencement of the experiments.
(§3) Quantitative biodistribution studies of ^177Lu-7 (100 μL, 200 pmol, 0.8–1 MBq) and ^68Ga-7 (100 μL, 200 pmol, 2–3 MBq) were performed after intravenous injection of the radioligand via the tail vein on Jurkat xenografts. […] 1 h after injection of the radioligand, mice were sacrificed, organs of interest and blood were collected, rinsed of excess blood, blotted dry, weighed, and counted in a γ-counter. The samples were counted against a suitable diluted aliquot of the injected solution as the standard and the results are expressed as percentage injected activity per gram of tissue (%IA/g). Statistical analysis between selected organs was performed by Welch’s t-test and p values <0.05 were considered statistically significant.

[3] = in vivo; settings: female, athymic nude-Foxn1^nu/Foxn1^+, mouse, iv, 200 pmol, total radioactivity
Method: as §1, §2, §3

CC[C@@H](C)[C@@H](N)C(=O)N[C@@H](CC(C)C)C(=O)N[C@@H](CCCNC(=N)N)C(=O)N[C@@H](Cc1c[nH]c2ccccc12)C(=O)N[C@@H](CO)C(=O)N[C@@H](CCCNC(=N)N)C(=O)N[C@@H](CCCCN)C(=O)N[C@@H](CCCCNC(=O)CN1CCN(CC(=O)O)CCN(CC(=O)O)CCN(CC(=O)O)CC1)C(N)=O [^177Lu-7, metal not drawn] (H-[dI]LRWSRKK(DOTA)-NH2; N-terminus assumed)
fraction unbound at 60 min [1]: 0.61 | uptake in adrenal [2]: 1.09 ± 0.42 % IA/g | tissue uptake at 1 h ([3]; uptake in blood): 0.42 ± 0.12 %ID/g | tissue uptake at 1 h ([3]; uptake in femur): 1.06 ± 0.28 %ID/g | tissue uptake at 1 h ([3]; uptake in heart): 0.21 ± 0.05 %ID/g | tissue uptake at 1 h ([3]; uptake in intestine): 0.37 ± 0.1 %ID/g | tissue uptake at 1 h ([3]; uptake in kidney): 83.1 ± 25.5 %ID/g | tissue uptake at 1 h ([3]; uptake in liver): 5.19 ± 1.08 %ID/g | tissue uptake at 1 h ([3]; uptake in muscle): 0.27 ± 0.14 %ID/g | tissue uptake at 1 h ([3]; uptake in pancreas): 0.14 ± 0.02 %ID/g | tissue uptake at 1 h ([3]; uptake in spleen): 0.81 ± 0.16 %ID/g | tissue uptake at 1 h ([3]; uptake in stomach): 0.3 ± 0.06 %ID/g | tissue uptake at 1 h ([3]; uptake in tumor): 2.25 ± 0.43 %ID/g

— article PMC10350915, “Development of a New Class of CXCR4-Targeting Radioligands Based on the Endogenous Antagonist EPI-X4 for Oncological Applications” (Journal of Medicinal Chemistry, 2023)
